Data published in patent publication US20240239864A1 (US Dept. of Health and Human Services, published 2024).

Molecular target: T1, HLA-A*02:01 CD22 p228-236 tetramer (human)
T1 construct: Bought monomer, loaded by UV peptide exchange and made into a tetramer; The streptavidin and label are not described; also called p-MHC tetramer
Test: p-MHC tetramer staining of T cells of co-culture well D146W8, flow cytometry

B1: TCR clone D146W8 (native clone on the T cells of co-culture well D146W8) (TCR, V domains shown)
V domain 1: QKEVEQNSGPLSVPEGAIASLNCTYSDRGSQSFFWYRQYSGKSPELIMFIYSNGDKEDGRFTAQLNKASQYVSLLIRDSQPSDSATYLCAVKGAGGFKTIFGAGTRLFVKA
V domain 2: DTGVSQNPRHKITKRGQNVTFRCDPISEHNRLYWYRQTLGQGPEFLTYFQNEAQLEKSRLLSDRFSAERPKGSFSTLEIQRTEQGDSAMYLCASSPGNTEAFFGQGTRLTVV
notes: also called D146W8 TCR; not shown: constant region of the native human clone
- binding result: binds
